Laboratory results from the supplement of paper PMC9112550, “Optimization of the antimicrobial peptide Bac7 by deep mutational scanning” (BMC Biology, 2022).

System: Escherichia coli TOP10
Assay: shrunken log2 fold change of peptide-encoding DNA abundance (4.5 h post-induction vs induction); higher = less antimicrobial activity (less host growth inhibition)
Conditions: time post-induction: 4.5 h; library: site-saturation at positions 5, 18, 19, 20
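Further: peptides expressed intracellularly from a pBAD plasmid library in pooled LB shake-flask culture, induced with 0.3% L-arabinose, DNA abundance read by NGS, three biological replicates, DESeq2 with apeglm shrinkage.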

RRIRPRPPRLPRPRPRPTMIPRP
shrunken log2 fold change: -0.239

RRIRLRPPRLPRPRPRPGFSPRP
shrunken log2 fold change: -0.161

RRIRWRPPRLPRPRPRPSCDPRP
shrunken log2 fold change: 0.574

RRIRTRPPRLPRPRPRPKIHPRP
shrunken log2 fold change: -0.427

RRIRARPPRLPRPRPRPNERPRP
shrunken log2 fold change: 0.531

RRIRARPPRLPRPRPRPEPDPRP
shrunken log2 fold change: -0.0215

RRIRHRPPRLPRPRPRPDQYPRP
shrunken log2 fold change: 0.0188

RRIRPRPPRLPRPRPRPNNHPRP
shrunken log2 fold change: -0.607

RRIRERPPRLPRPRPRPHRPPRP
shrunken log2 fold change: -0.123

RRIRGRPPRLPRPRPRPGTKPRP
shrunken log2 fold change: 0.652

RRIRTRPPRLPRPRPRPPVIPRP
shrunken log2 fold change: 0.213

RRIRVRPPRLPRPRPRPVQTPRP
shrunken log2 fold change: 0.0297

RRIRWRPPRLPRPRPRPGVQPRP
shrunken log2 fold change: 0.309

RRIRIRPPRLPRPRPRPFRYPRP
shrunken log2 fold change: -0.42

RRIRTRPPRLPRPRPRPMSNPRP
shrunken log2 fold change: -0.535

RRIRERPPRLPRPRPRPMKNPRP
shrunken log2 fold change: -0.22

RRIRQRPPRLPRPRPRPSHRPRP
shrunken log2 fold change: -0.0821

RRIRQRPPRLPRPRPRPSFKPRP
shrunken log2 fold change: -0.525

RRIRKRPPRLPRPRPRPWTVPRP
shrunken log2 fold change: -1.8

RRIRDRPPRLPRPRPRPKVQPRP
shrunken log2 fold change: 0.116

RRIRVRPPRLPRPRPRPNVEPRP
shrunken log2 fold change: -0.0461

RRIRHRPPRLPRPRPRPIKLPRP
shrunken log2 fold change: -0.118

RRIRARPPRLPRPRPRPYTSPRP
shrunken log2 fold change: 0.0229

RRIRGRPPRLPRPRPRPLGAPRP
shrunken log2 fold change: 1.07

RRIRWRPPRLPRPRPRPCWKPRP
shrunken log2 fold change: -0.00256

RRIRCRPPRLPRPRPRPTFQPRP
shrunken log2 fold change: -0.0555

RRIRKRPPRLPRPRPRPQTVPRP
shrunken log2 fold change: 0.0918

RRIRRRPPRLPRPRPRPTMEPRP
shrunken log2 fold change: -0.0829

RRIRVRPPRLPRPRPRPCPPPRP
shrunken log2 fold change: -0.216

RRIRLRPPRLPRPRPRPEMIPRP
shrunken log2 fold change: 0.0183

RRIRMRPPRLPRPRPRPMFEPRP
shrunken log2 fold change: 0.155

RRIRHRPPRLPRPRPRPEVNPRP
shrunken log2 fold change: 0.062

RRIRKRPPRLPRPRPRPGHRPRP
shrunken log2 fold change: 0.118

RRIRCRPPRLPRPRPRPTGYPRP
shrunken log2 fold change: -0.0363

RRIRNRPPRLPRPRPRPINCPRP
shrunken log2 fold change: 0.00363

RRIRERPPRLPRPRPRPNFDPRP
shrunken log2 fold change: -0.145

RRIRDRPPRLPRPRPRPCFLPRP
shrunken log2 fold change: -0.106

RRIRSRPPRLPRPRPRPIFFPRP
shrunken log2 fold change: 0.124

RRIRERPPRLPRPRPRPQLVPRP
shrunken log2 fold change: 0.0441

RRIRGRPPRLPRPRPRPFEDPRP
shrunken log2 fold change: 0.392

RRIRMRPPRLPRPRPRPACLPRP
shrunken log2 fold change: 0.236

RRIRVRPPRLPRPRPRPEKFPRP
shrunken log2 fold change: -0.208

RRIRWRPPRLPRPRPRPDDVPRP
shrunken log2 fold change: 0.0399

RRIRQRPPRLPRPRPRPKFTPRP
shrunken log2 fold change: 0.025

RRIRLRPPRLPRPRPRPPGHPRP
shrunken log2 fold change: 0.224

RRIRSRPPRLPRPRPRPCAKPRP
shrunken log2 fold change: 0.0351

RRIRQRPPRLPRPRPRPMRCPRP
shrunken log2 fold change: 0.054

RRIRWRPPRLPRPRPRPFAKPRP
shrunken log2 fold change: 0.382

RRIRFRPPRLPRPRPRPSPQPRP
shrunken log2 fold change: 0.0415

RRIRARPPRLPRPRPRPLKTPRP
shrunken log2 fold change: 0.219

RRIRNRPPRLPRPRPRPQPFPRP
shrunken log2 fold change: -0.0278

RRIRARPPRLPRPRPRPMWNPRP
shrunken log2 fold change: -0.342

RRIRCRPPRLPRPRPRPIKPPRP
shrunken log2 fold change: -0.259

RRIRGRPPRLPRPRPRPWMFPRP
shrunken log2 fold change: 0.0448

RRIRVRPPRLPRPRPRPQGQPRP
shrunken log2 fold change: 0.00581

RRIRTRPPRLPRPRPRPLFMPRP
shrunken log2 fold change: -0.737

RRIRDRPPRLPRPRPRPKVNPRP
shrunken log2 fold change: -0.287

RRIRLRPPRLPRPRPRPKHPPRP
shrunken log2 fold change: -0.09

RRIRFRPPRLPRPRPRPAPMPRP
shrunken log2 fold change: 0.282

RRIRMRPPRLPRPRPRPMWNPRP
shrunken log2 fold change: 0.0246
